Here are results for four molecules from patent publication US20170226208A1 (SUPPREMOL, published 2017).

Experiment [1] addresses FcεRI at the surface of basophils (human) (UniProt P12319). Put plainly: cell-based or functional assay.
The target in experiment [2] is T1, recombinant soluble human FcγRIIB (human, UniProt P31994 43-217).
T1 construct: also called sFcγRIIB; SM101
T1 sequence: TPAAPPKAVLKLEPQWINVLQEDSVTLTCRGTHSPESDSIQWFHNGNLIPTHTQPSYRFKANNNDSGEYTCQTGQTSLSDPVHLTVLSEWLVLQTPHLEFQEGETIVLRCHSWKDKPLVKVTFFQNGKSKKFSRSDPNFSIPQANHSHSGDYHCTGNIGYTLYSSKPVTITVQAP
Put plainly: antigen-specific ELISA, sFcγRIIB coated, hybridoma supernatant. On the technique in general: ELISA stands for enzyme-linked immunosorbent assay.
Procedure: Fusion of the myeloma cell line with the rat immune spleen cells was performed according to standard procedures. […] MAbs from tissue culture supernatant bound to the proteins were detected with HRP conjugated mAbs against the rat IgG isotypes (TIB173 anti-IgG2a, TIB174 anti-IgG2b, TIB170 anti-IgG1 all from ATCC, R-2c anti-IgG2c homemade), thus avoiding mAbs of IgM class. […] A FACS based assay was used to screen the antibodies for specific binding of the native antigen). Additionally the antibodies were screened for non-blocking characteristics, i.e. these antibodies still allow binding of IgG or immune complexes to membrane-bound FcγRIIB.

In experiment [3] the target is T2, recombinant soluble human FcγRIIB (UniProt P31994 43-217).
T2 chain: T1 sequence
The experiment in a line: SPR; wildtype Fc format. Background: SPR reads the build-up and loss of mass on a sensor chip optically.

Experiment [4] deals with T3, native FcγRIIB expressed on cells (Raji, Daudi, PBMC B cells) (human, UniProt P31994 43-310).
T3 sequence (looked up): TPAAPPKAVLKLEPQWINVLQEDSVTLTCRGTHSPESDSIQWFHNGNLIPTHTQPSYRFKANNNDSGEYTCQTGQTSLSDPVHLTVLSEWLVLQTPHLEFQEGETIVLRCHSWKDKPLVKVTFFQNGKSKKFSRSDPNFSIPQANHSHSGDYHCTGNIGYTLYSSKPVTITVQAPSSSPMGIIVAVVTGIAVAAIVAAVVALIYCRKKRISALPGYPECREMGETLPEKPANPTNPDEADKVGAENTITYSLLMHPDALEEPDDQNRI
Put plainly: cell-based or functional assay.

In experiment [5] the target is T2, recombinant soluble human FcγRIIB. The experiment in a line: SPR; N297A format.

FcεRI at the surface of basophils (human), sequence (P12319 26-257): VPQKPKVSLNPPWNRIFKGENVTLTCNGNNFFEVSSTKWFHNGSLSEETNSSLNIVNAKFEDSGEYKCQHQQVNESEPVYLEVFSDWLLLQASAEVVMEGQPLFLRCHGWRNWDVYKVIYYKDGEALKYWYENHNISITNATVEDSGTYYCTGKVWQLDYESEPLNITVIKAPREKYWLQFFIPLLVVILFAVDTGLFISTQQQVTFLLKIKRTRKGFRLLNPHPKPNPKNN

B1: ch8A6_cε2-4-degly (bispecific antibody, part only; not given: CH1, CL and IgE Fc domains, not shown: a dimerising Fc or GST)
heavy, part: EVQLVESGGDLVQPGRSLRLSCAASGFTFSDYYMAWVRQAPKKGLEWVASISSDGSNTYYGDSVKGRFTISRDNTRSNLYLQMNSLRSEDTATYYCARPGDYWGQGVMVTVSS
light, part: NIVMTQSPTSMFISVGDRVTMNCKASQNVGTYVDWFQQKTGQSPTLLIFGASNRYTGVPDRFTGSGSGTDFTLSISNMQAEDLAVYYCLQYNYHPYTFGPGTTLELKR
In experiment [1], B1 gave a basophil activation by pollen, CD63-positive basophils, after 2 h incubation with antibody (% positive cells) of 84.4 to 88; a basophil activation by pollen, CD63-positive basophils, after 6 h incubation with 0.5 µg/ml antibody of 76.6%; a basophil activation by pollen, CD63-positive basophils, after 6 h incubation with antibody of 76 to 84%.

B2: monoclonal antibody 8A6 (rat IgG2a) (antibody, V domains shown)
VH: B1 heavy, part
VL: B1 light, part
notes: Rat IgG2a from hybridoma supernatant; also called mAb 8A6; rat antibody 8A6
With B2, the binding result in experiment [2] was “binds”.

B3: ch8A6_wt (antibody)
chain 1: B1 heavy, part
chain 2: B1 light, part
One may read the koff as a measure of how fast the partners let go of each other. Turning to B3, the koff in experiment [3] came out at 0.00049 s⁻¹.

B4: chGB3_N297A (antibody, V domains shown)
VH: VQLQQSGPELVKPGASVKISCKASGYTFTDYYIYWVKQWPGQGLEWIGWIFPGTGNTYYNENFKDKATLTIDRSSSTAYMLLGSLTSEDSAVYFCYGPFAYWGQ
VL: RIQLTQSPSSLSASLGERVSLTCRASQEISGYLSWLQQKPDGTIKRLIYATSALDSGVPKRFSGSGSGSNYSLTISSLESEDFADYYCLQYANYPYTFGGGTKL
On to B4, for which the “FcγRIIB-ITIM phosphorylation, densitometry of Western blot, Daudi cells, against untreated cells” value in experiment [4] was 2.8 fold. The koff in experiment [5] came out at 0.01 s⁻¹.
